From US20240158497A1 (published 2024)

Experiments:
[1] = target: T1, extracellular domain of human LEPR, GPI-anchored, on HEK293/hLEPR-GPI cells (human, UniProt P48357 22-839, GPI anchor at the C-terminus ; GPI anchor at the C-terminus, added through the carboxypeptidase M signal peptide. The N-terminal myc-myc tag is not written.); test: FACS, 200 nM antibody on HEK293/hLEPR-GPI cells, no Leptin
T1 sequence: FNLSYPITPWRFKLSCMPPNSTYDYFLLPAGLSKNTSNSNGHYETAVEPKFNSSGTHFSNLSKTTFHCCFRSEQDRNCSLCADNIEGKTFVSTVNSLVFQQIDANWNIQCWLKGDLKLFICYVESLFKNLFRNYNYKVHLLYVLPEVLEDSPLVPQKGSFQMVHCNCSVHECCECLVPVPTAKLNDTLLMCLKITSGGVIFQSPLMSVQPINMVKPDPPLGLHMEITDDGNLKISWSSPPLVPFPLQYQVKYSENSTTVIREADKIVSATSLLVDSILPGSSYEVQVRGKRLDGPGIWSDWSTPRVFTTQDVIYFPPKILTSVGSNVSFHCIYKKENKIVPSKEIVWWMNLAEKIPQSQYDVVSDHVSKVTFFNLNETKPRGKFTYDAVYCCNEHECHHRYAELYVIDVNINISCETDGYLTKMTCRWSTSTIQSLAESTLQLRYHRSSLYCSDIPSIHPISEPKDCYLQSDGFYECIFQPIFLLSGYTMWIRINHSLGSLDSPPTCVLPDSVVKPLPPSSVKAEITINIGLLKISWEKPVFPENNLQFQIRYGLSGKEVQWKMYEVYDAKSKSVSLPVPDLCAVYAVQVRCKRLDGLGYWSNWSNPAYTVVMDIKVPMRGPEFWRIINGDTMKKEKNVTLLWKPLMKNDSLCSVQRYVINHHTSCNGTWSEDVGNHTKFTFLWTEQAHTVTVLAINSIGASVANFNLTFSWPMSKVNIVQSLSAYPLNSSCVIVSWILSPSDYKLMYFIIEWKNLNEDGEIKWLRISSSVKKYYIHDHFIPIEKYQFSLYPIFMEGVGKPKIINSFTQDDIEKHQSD
Description: (§1) For the FACS analysis, 0.5×10^6 cells/well of HEK293 parental cells, HEK293/Stat3-luc/gp130-2 X Sort cells, and HEK293/hLEPR-GPI cells, were incubated with 200 nM of the conventional antibodies against either GP130 or LEPR or with LEPRxGP130 bispecific antibodies, along with isotype control antibodies at 4° C. in PBS (without calcium and magnesium) containing 2% FBS.
(§2) Cells were fixed using BD CytoFix™ (Becton Dickinson, #554655) and analyzed on an IQue® (Intellicyt) Flow Cytometer. Unstained and secondary antibody alone controls were also tested for all cell lines. The results were analyzed using ForeCyt® (IntelliCyt) and FlowJo version 10 softwares to determine the geometric means of fluorescence for viable cells.

[2] = target: T1, extracellular domain of human LEPR, …; test: FACS, 200 nM antibody on HEK293/hLEPR-GPI cells, 1 µM Leptin
Description: as §1, §2

[3] = target: T2, mouse GP130 extracellular domain expressed with a C-terminal myc-myc-hexahistidine tag (mouse, UniProt Q00560 23-617); test: SPR
T2 construct: monomeric; also called mGP130-mmH; mGP130-MMH
Description: (§3) Equilibrium dissociation constant (KD) for different GP130 reagents binding to purified anti-GP130 monoclonal antibodies were determined using a real-time surface plasmon resonance based Biacore 4000 biosensor. All binding studies were performed in 10 mM HEPES, 150 mM NaCl, 3 mM EDTA, and 0.05% v/v Surfactant Tween-20, pH 7.4 (HBS-ET) running buffer at 25° C. and 37° C. The Biacore sensor surface was first derivatized by amine coupling with a monoclonal mouse anti-human Fc antibody (GE, #BR-1008-39) to capture anti-GP130 monoclonal antibodies. […] Reagents tagged with “mmH” are monomeric, whereas reagents tagged with “mFc” are dimeric. Thus, for example, “hGP130-mmH” is also referred to as “monomeric human GP130,” and “hGP130-mFc” is also referred to as “dimeric human GP130.”
(§4) The association rate (k a) and dissociation rate (kd) were determined by fitting the real-time binding sensorgrams to a 1:1 binding model with mass transport limitation using Scrubber 2.0c curve-fitting software. Binding dissociation equilibrium constant (KD) and dissociative half-life (t ½) were calculated from the kinetic rates as: […]

[4] = target: T3, human GP130 delta D1 expressed with a C-terminal myc-myc hexahistidine tag (human, UniProt P40189 124-619); test: Luminex, myc-captured antigen
T3 construct: CHO supernatant, captured on anti-myc microspheres; also called human GP130 delta D1-MMH
Description: (§5) Aliquots of microspheres with immobilized anti-myc monoclonal antibodies, prepared as described above, were added individually to 1 mL of the each of these protein supernatants and to 500 uL of purified GP130 protein. The microspheres were gently mixed, incubated for two hours at 25° C., washed twice with 1 mL of DBPS, centrifuged to remove the supernatant and finally resuspended in 1 mL of DPBS buffer. Forty eight μL of anti-myc IgG coupled microspheres from individual reactions with full length human GP130 and with each of the human GP130 domain proteins were withdrawn and mixed together in 3.6 mL of PBS+20 mg/mL BSA+0.05% sodium azide (blocking buffer).
(§6) From this mixed pool, 75 μL of microspheres were plated per well on a 96 well filter plate (Millipore, Cat. No: MSBVN1250) and mixed with 25 μL of individual anti-human GP130 monoclonal antibodies (0.5 or 5 μg/mL), incubated for two hours at 25° C. and then washed twice with 200 μL of DPBS with 0.05% Tween 20 (washing buffer). To detect and quantify the amounts of bound anti-GP130 antibody levels to individual microspheres, either 100 μL of 2.5 μg/mL R-Phycoerythrin conjugated goat F(ab′)2 anti-human kappa (Southern Biotech, Cat #2063-09) in blocking buffer, was added and incubated for 30 minutes at 25° C. After 30 minutes, the samples were washed twice with 200 μL of washing buffer and resuspended in 150 μL of wash buffer. The Median Fluorescence intensity (MFI) of the microspheres was measured in a Luminex Analyzer.

[5] = target: T4, human GP130 delta D1-D3 expressed with a C-terminal myc-myc hexahistidine tag (human, UniProt P40189 329-619); test: Luminex, myc-captured antigen
T4 construct: CHO supernatant, captured on anti-myc microspheres; also called human GP130 delta D1-D3-MMH
Description: as §5, §6

[6] = target: T5, human GP130 extracellular domain expressed with a C-terminal myc-myc-hexahistidine tag (human, UniProt P40189 23-619); test: SPR 25C, mAb captured, hGP130-MMH injected
T5 construct: monomeric; also called hGP130-mmH; hGP130-MMH
Description: as §3, §4

[7] = target: T6, full length human GP130 (L2V natural variant) on HEK293/Stat3-luc/gp130-2X Sort cells (human, UniProt P40189 23-918); test: FACS, 200 nM antibody on HEK293/gp130 2X Sort cells
T6 construct: whole, on cells; Stably over-expressed on HEK293 cells, sorted twice for high expression; also called HEK293/gp130 2X Sort
T6 sequence (looked up): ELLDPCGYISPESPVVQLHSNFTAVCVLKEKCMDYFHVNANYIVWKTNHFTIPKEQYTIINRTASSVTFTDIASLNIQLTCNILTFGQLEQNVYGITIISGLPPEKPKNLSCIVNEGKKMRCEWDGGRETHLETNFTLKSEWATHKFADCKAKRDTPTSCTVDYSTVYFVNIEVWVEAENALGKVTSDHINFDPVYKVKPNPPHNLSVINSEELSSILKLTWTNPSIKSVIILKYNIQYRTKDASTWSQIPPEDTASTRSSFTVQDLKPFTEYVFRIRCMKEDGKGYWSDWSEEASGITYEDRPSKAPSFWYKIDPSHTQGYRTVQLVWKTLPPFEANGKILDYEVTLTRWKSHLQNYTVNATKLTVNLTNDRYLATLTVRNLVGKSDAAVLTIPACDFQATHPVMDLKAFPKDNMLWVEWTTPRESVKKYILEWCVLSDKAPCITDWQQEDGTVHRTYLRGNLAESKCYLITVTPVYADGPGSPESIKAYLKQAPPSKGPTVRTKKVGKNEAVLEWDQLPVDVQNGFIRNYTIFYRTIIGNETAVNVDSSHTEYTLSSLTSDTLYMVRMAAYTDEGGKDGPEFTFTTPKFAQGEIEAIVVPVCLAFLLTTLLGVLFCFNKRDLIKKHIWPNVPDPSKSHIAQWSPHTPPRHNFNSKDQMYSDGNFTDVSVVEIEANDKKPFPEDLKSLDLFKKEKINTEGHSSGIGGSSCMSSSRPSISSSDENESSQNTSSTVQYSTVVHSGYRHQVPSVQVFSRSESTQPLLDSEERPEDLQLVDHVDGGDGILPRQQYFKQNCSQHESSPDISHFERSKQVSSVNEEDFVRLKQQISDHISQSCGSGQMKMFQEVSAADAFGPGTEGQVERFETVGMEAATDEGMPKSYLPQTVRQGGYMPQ
Description: as §1, §2

T5 sequence (P40189 other isoform, or with tags, fused parts or gaps): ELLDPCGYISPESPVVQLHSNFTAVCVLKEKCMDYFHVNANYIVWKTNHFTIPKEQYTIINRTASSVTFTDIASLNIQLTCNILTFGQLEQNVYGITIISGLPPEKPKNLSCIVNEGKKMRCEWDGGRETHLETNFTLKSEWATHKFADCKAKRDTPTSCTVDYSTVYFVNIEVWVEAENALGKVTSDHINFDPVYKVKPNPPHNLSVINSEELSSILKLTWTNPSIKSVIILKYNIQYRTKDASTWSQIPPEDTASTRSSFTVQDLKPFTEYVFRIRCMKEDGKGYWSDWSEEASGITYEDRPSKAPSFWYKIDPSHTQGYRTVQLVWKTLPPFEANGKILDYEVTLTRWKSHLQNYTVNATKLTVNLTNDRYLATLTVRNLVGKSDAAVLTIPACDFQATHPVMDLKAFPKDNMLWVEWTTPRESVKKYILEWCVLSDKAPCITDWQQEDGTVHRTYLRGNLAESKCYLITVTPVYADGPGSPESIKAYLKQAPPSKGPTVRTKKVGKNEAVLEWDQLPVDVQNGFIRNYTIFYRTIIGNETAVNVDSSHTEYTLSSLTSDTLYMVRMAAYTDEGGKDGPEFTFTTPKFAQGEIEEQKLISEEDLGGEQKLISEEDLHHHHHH
T3 sequence (P40189 other isoform, or with tags, fused parts or gaps mutant limits assumed): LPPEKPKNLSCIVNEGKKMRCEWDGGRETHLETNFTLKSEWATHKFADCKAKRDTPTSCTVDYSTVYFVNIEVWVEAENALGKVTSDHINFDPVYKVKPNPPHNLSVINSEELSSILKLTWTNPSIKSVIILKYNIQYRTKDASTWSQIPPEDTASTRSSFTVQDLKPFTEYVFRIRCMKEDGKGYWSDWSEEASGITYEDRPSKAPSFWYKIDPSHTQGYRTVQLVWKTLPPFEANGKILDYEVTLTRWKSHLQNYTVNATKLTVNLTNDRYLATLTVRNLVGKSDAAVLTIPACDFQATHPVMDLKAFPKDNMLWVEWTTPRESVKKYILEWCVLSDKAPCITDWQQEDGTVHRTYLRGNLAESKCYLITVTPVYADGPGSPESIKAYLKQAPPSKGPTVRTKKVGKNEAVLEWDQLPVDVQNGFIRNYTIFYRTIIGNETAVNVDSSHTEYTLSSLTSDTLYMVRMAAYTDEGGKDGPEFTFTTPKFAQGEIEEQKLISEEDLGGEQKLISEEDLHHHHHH
T4 sequence (P40189 other isoform, or with tags, fused parts or gaps mutant limits assumed): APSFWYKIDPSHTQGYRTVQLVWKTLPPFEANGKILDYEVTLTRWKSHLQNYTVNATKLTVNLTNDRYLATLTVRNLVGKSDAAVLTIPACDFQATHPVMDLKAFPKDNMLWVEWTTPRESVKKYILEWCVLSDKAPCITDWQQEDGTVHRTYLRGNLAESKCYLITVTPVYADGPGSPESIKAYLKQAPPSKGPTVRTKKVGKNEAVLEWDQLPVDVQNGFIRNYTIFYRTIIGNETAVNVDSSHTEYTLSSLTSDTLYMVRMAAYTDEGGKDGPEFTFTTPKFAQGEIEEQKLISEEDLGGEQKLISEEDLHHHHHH
T2 sequence (Q00560 other isoform, or with tags, fused parts or gaps): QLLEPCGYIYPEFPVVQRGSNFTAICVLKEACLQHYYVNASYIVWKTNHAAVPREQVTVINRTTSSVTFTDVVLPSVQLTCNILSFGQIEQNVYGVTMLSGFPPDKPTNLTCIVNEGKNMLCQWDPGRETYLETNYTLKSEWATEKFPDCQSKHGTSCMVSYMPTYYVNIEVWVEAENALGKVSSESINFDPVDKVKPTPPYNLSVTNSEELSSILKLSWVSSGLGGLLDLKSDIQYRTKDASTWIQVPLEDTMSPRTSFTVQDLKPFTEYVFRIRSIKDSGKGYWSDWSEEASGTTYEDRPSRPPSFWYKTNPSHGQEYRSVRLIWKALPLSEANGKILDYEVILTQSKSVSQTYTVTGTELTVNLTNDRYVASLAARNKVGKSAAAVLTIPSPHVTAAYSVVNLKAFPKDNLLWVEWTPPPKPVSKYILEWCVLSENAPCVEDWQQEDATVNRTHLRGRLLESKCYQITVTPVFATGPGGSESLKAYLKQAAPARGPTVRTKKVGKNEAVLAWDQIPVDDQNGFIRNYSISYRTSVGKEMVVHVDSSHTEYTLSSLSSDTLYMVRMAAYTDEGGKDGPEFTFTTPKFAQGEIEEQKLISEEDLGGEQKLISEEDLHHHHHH

B1: mAb18445 (antibody, V domains shown)
VH: QVQLQESGPGLVKPSQTLSLTCTVSGGSISSGGDYWSWIRQLPGKGLEWIGYIYYSGSAYYNPSLKSRGTISIDTSKNQFSLKLTSVTAADTAVYFCVKLRFLEWFLGGWFGPWGQGTLVTVSS
VL: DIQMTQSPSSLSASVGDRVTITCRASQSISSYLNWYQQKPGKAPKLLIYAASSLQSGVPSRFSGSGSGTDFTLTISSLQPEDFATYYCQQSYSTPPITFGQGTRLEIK
notes: Conventional anti-LEPR antibody; also called mAB18445 (anti-LEPR mAb)
For B1, the “Binding Ratio, normalized to unstained sample (FL4-A)” value (shortened to “Binding Ratio, normalized”) [1] was 4710 fold and the “Binding Ratio, normalized” value [2] was 4250 fold.

B2: MAb16676 (antibody, V domains shown)
VH: QVQLVQSGAEVMKPGASVKVSCRASGYTFSSYDINWVRQAPGQGLEWMGWISTATGNTNYPQKVQGRVTMTTDTSTNTAYMELRSLRSDDTAVYYCTREGNSKGWLDPWGQGTLVTVSS
VL: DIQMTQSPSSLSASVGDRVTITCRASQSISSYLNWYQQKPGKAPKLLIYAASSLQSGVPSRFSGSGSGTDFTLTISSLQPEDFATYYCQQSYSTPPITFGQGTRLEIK
B2: no binding (tested: 100 nM) [3]; no binding (tested: 0.5 or 5 µg/mL) [4]; no binding (tested: 0.5 or 5 µg/mL) [5]. The “100 nM Ag Bound (RU)” value [6] was 51 RU, the Kd [6] was 2.19 nM and the koff [6] was 0.000631 s⁻¹. The kon [6] was 287000 M⁻¹ s⁻¹ and the t½ [6] was 18 min.

B3: mAb18446 (antibody, V domains shown)
VH: EVQLVESGGGLVQPGGSLRLSCAASGFTFSNYGMTWVRQAPGKGLEWVSAITGGGGSTYYSNSVKGRFTISRDNSKNTVYLRMNSVRAEDTAVYYCAKYKWNFVDDWGQGTTVTVSS
VL: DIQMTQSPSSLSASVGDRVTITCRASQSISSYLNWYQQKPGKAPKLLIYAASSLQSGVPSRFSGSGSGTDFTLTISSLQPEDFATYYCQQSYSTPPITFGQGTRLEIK
notes: Conventional anti-LEPR antibody; also called mAB18446 (anti-LEPR mAb)
B3 was tested, and the “Binding Ratio, normalized” value [1] was 7020 fold and the “Binding Ratio, normalized” value [2] was 6390 fold.

B4: mAb16683 (antibody, V domains shown)
VH: QVQLVESGGGLVKPGGSLRLSCAASGFTFSDYYMTWIRQTPGKGLDWVSYISSSGTNKYNADSVKGRFTISRDNAKNSLYLQMNSLRAEDTAVYYCVRDPPWGMDVWGQGTTVTVSS
VL: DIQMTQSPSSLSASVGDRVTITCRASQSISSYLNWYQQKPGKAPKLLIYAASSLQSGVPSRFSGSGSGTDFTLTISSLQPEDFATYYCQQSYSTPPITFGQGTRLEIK
notes: Conventional anti-GP130 antibody; also called mAb16683 (anti-GP130 mAb)
With B4 the “Binding Ratio, normalized” value [7] was 235 fold and the “Binding Ratio, normalized” value [1] was 21 fold.
